Assay results: paper PMC3830641 (Biochemistry, 2013)
Where a chain is given by its changes, count along the chain named. Names may count otherwise.

B1: EL362, LOV-histidine kinase from Erythrobacter litoralis HTCC2594 (wild type, Arg 150) (enzyme, UniProt Q2N9L9 1-362, looked up)
chain: MDDQPTTRANRVGHPESSRQAYSSESGATHGSLAFPGASGLLFEQAMAQTRMAVCLTDPHQPDHPIVFCNAAFERLTGYEEKDIIGRNCRFLQGARTDESQVARIRDALAKEEVAVVELLNYRKDGSTFWNALHLGPIYDESGKLKYFFRSQWDVTDIHEARAEQRHAKAMAREVSHRLKNVFSVIAGIVNITGRSMDARPVASRINERVQALGRAYEPTLDEAFMGTIEVGQAIRAILAPYDPEGDRVSLEGNGVRTEPNAISSIGLTLHELASNAIKYGALSNETGTIDVSWHHERDDHDRRRLVIDWKESGGPTIEGPPETGGTGFDISETLLSYSNGTLEKRWDRDGLFVRIAIPIEQ
B2: EL362(R150G) (enzyme, Erythrobacter litoralis HTCC2594, UniProt Q2N9L9 1-362, looked up)
chain: B1 chain with R150G
B3: EL368, LOV-histidine kinase from Erythrobacter litoralis HTCC2594 (enzyme, UniProt Q2NCA3 1-360, looked up)
chain: MPLKGEISAQAGREFDTSRLDLRAIIDPRDLRVDPTRLFLETTQQTRLAICISDPHQPDCPVVYVNQAFLDLTGYAREEIVGRNCRFLQGADTDPEQVRKLREGIAAERYTVVDLLNYRKDGIPFWNAVHVGPIYGEDGTLQYFYGSQWDITDIVAERRKAETQRRIAAELRHRTGNIFAVLNAIIGLTSRRERDVSEFADKLSERVSALASAHRMTIMDEPDQEAVAIDDLVTGVMKPYRNRFAERVTTSGPKIELGPRSVTALGLALHELATNAVKYGALSVDAGRVEISWSREDGDVTLVWQEQGGPTVSQEQSEPVKGNGTMLIDGMIASLTGSIERDFAAAGLQAKITLPVHQPE

How the values were obtained:
[1] = target: anti-σ factor (ELI_10225) from Erythrobacter litoralis HTCC2594 (Erythrobacter litoralis HTCC2594) (UniProt Q2N854); assay: SEC-MALS
SEC-MALS = target: the molecule itself; assay: SEC-MALS

Row | Molecule | binding result (SEC-MALS) | further results
1 | phospho-EL_PhyR (EL_PhyR phosphorylated by EL368 and ATP) (from UniProt Q2N856 1-266) (natural protein) | – | stoichiometry N [1]: 1
2 | B1 | binds | –
3 | B2 | binds | –
4 | B3 | – | stoichiometry N (SEC-MALS): 2
